Results taken from patent US20190338002A1 (Pieris, published 2019).
Numbering of substitutions follows the chain as printed.

Legend:
[1] = target: T1, human beta CGRP (SEQ ID NO: 81) (human, not fully specified); experiment: competition ELISA in solution; free mutein detected on plate-bound biotinylated CGRP
T1 construct: also called human βCGRP; hβCGRP
T1 peptide: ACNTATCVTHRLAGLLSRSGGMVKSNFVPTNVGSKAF
Protocol: (§1) Binding of lipocalin muteins to alpha and beta CGRP from human and rat in solution was tested in vitro using a competition ELISA assay format (FIG. 1). In this experiment, a constant concentration of non-biotinylated CGRP (0.5 μM) was incubated for 1 h with variable concentrations of lipocalin muteins SEQ ID NO: 2, SEQ ID NO: 3, SEQ ID NO: 4; SEQ ID NO: 5, and SEQ ID NO: 6. After this pre-incubation in solution, an aliquot of the lipocalin mutein/CGRP mixture was transferred to an ELISA plate coated with Neutravidin-captured human alpha CGRP-bio to measure the concentration of lipocalin muteins that was not blocked by non-biotinylated human alpha CGRP (SEQ ID NO: 80) and therefore could still be bound by the immobilized human alpha CGRP-bio (FIG. 1). This procedure was performed on another relevant CGRP species (human beta CGRP (SEQ ID NO: 81), rat alpha CGRP (SEQ ID NO: 82), rat beta CGRP (SEQ ID NO: 83)). All incubation steps were performed with shaking at 300 rpm, and the plate was washed after each incubation step with 80 μL PBS-T buffer (PBS, 0.05% Tween 20) for five times using a Biotek ELx405 select CW washer. In the first step, a 384-well ELISA plate was coated with 20 μL of Neutravidin at a concentration of 5 μg/mL in PBS over night at 4° C. After washing, the plate was blocked with 60 μL PBS-T/BSA (2% BSA in PBS containing 0.05% Tween 20) for 1 h at room temperature.
(§2) To allow for detection and quantification of plate-bound lipocalin muteins, the residual supernatants were discarded and 20 μL HRP-labeled anti-hNGAL antibody was added at a predetermined optimal concentration in PBS-T/BSA and incubated for 1 h at RT. The anti-hNGAL antibody had been obtained by immunization of rabbits with a mixture of muteins, and was subsequently coupled to HRP using a kit (EZ-link Plus Activated Peroxidase, Thermo Scientific) according to the manufacturer's instructions, to obtain the antibody-HRP conjugate. After washing, 20 μl fluorogenic HRP substrate (QuantaBlu, Thermo) was added to each well, and the reaction was allowed to proceed for 15 to 60 minutes. The fluorescence intensity of every well on the plate was read using a fluorescence microplate reader (Tecan or Molecular Devices). To evaluate the data, free mutein concentration, c(mutein)free, was calculated based on the standard curve results, and plotted versus ligand concentration, c(Ligand).

[2] = target: T2, human alpha CGRP (SEQ ID NO: 80) (human, not fully specified); experiment: as above
T2 construct: also called human αCGRP; hαCGRP
T2 peptide: T1 peptide with N3D, M22V, S25N
Protocol: as §1, §2

[3] = target: T3, rat alpha CGRP (SEQ ID NO: 82) (rat); experiment: as above
T3 construct: also called rat αCGRP; rat α-CGRP
T3 peptide: T1 peptide with A1S, M22V, S25D, K35E
Protocol: as §1, §2

[4] = target: T4, rat beta CGRP (SEQ ID NO: 83) (rat, not fully specified); experiment: as above
T4 construct: also called rat βCGRP; rat β-CGRP
T4 peptide: T1 peptide with A1S, M22V, S25D
Protocol: as §1, §2

[5] = target: T1, human beta CGRP (SEQ ID NO: 81); experiment: SPR, 37 C, mutein captured, CGRP analyte
How it was run: (§3)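 Biotinylated lipocalin muteins were captured on streptavidin-oligo CAP chip, and CGRP was injected at 30, 3 and 0.3 nM or at a single 25 nM at 37 °C (180 s association, 5400 s dissociation) in HBS-EP+. Double-referenced sensorgrams were globally fit to a 1:1 model for ka and kd.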

[6] = target: T2, human alpha CGRP (SEQ ID NO: 80); experiment: SPR, 37 C, mutein captured, CGRP analyte
How it was run: as §3

[7] = target: T3, rat alpha CGRP (SEQ ID NO: 82); experiment: SPR, 37 C, mutein captured, CGRP analyte
How it was run: as §3

[8] = target: T4, rat beta CGRP (SEQ ID NO: 83); experiment: SPR, 37 C, mutein captured, CGRP analyte
How it was run: as §3

[9] = target: T4, rat beta CGRP (SEQ ID NO: 83); experiment: SPR Biacore 37 °C, protein captured as ligand, rb CGRP (1-37) injected, 1:1 fit of a flat sensorgram; run 130301_NAN-DS-049
Protocol: (§4) The Biotin CAPture Kit (GE Healthcare) was used to immobilize biotinylated lipocalin muteins to a chip surface. Muteins were biotinylated using standard NHS chemistry. Undiluted Biotin CAPture Reagent (streptavidin conjugated with ss-DNA oligo) was captured on a Sensor Chip CAP with the pre-immobilized complementary ss-DNA oligo. Thereafter, biotinylated muteins at 1 μg/mL were applied for 300 s at a flow rate of 5 μL/min.
(§5) CGRP species were applied in three concentrations of 30 nM, 3 nM and 0.3 nM at a flow rate of 30 μL/min or in a single concentration of 25 nM per cycle as shown in FIG. 2. The dilutions were injected with association times of 180 s and dissociation times of 5400 sec to obtain ka and kd information. Regeneration of the chip surface was achieved by injecting 6 M Guanidinium-HCl+0.25 M NaOH (120 s) with a flow rate of 10 μL/min. […]
(§6) The data were double-referenced by subtraction of the corresponding signals measured for the control channel (loaded with Biotin CAPture reagent only) and by subtraction of buffer injections from the binding responses. Association rate constant ka and dissociation rate constant kd for the binding reaction were determined using Biacore T200 Evaluation Software V2.0 for data processing and kinetic fitting. […]

[10] = target: T1, human beta CGRP (SEQ ID NO: 81); experiment: SPR Biacore 37 °C, protein captured as ligand, hb CGRP (1-37) injected, 1:1 fit of a flat sensorgram; run 130208_NAN-DS-047 [contd]
Protocol: as §4, §5, §6

[11] = target: T4, rat beta CGRP (SEQ ID NO: 83); experiment: SPR Biacore 37 °C, protein captured as ligand, rb CGRP (1-37) injected, 1:1 fit of a flat sensorgram; run 130208_NAN-DS-047 [contd]
Protocol: as §4, §5, §6

[12] = target: T3, rat alpha CGRP (SEQ ID NO: 82); experiment: SPR Biacore 37 °C, protein captured as ligand, ra CGRP (1-37) injected, 1:1 fit of a flat sensorgram; run 130208_NAN-DS-047 [contd]
Protocol: as §4, §5, §6

[13] = target: T1, human beta CGRP (SEQ ID NO: 81); experiment: SPR Biacore 37 °C, protein captured as ligand, hb CGRP (1-37) injected, 1:1 fit of a flat sensorgram; run 130301_NAN-DS-049
Protocol: as §4, §5, §6

[14] = target: T2, human alpha CGRP (SEQ ID NO: 80); experiment: SPR Biacore 37 °C, protein captured as ligand, ha CGRP (1-37) injected, 1:1 fit of a flat sensorgram; run 130301_NAN-DS-049
Protocol: as §4, §5, §6

[15] = target: T2, human alpha CGRP (SEQ ID NO: 80); experiment: SPR Biacore 37 °C, protein captured as ligand, ha CGRP (1-37) injected, 1:1 fit of a flat sensorgram; run 130208_NAN-DS-047 [contd]
Protocol: as §4, §5, §6

[16] = target: T3, rat alpha CGRP (SEQ ID NO: 82); experiment: SPR Biacore 37 °C, protein captured as ligand, ra CGRP (1-37) injected, 1:1 fit of a flat sensorgram; run 130301_NAN-DS-049
Protocol: as §4, §5, §6

B1: lipocalin mutein SEQ ID NO: 4 (designed binder)
chain: QDSTSDLIPAPPLSKVPLQQNFQDNQFHGKWYVVGWAGNTLLREDKDPTKMQATIYELKEDKSYNVTWVYFSEKKCNYHIETFVPGSQPGEFTLGTIKSYPGETSILVRVVSTNYNQHAMVFFKGVSQNREIFEITLYGRTKELTSELKENFIRFSKSLGLPENHIVFPVPIDQCIDGSAWSHPQFEK
notes: biotinylated by NHS chemistry for capture in SPR
With B1 as the binder, how does the IC50 [1] read?
Its IC50 is 1.8 nM.

What about the IC50 [2] of the same binder?
Its IC50 is 2.1 nM.

And the IC50 [3]?
Its IC50 is 2.6 nM.

And the IC50 [4]?
The IC50 was 3 nM.

What about the Kd [5] of the same binder?
The Kd was 0.753 nM.

What about the koff [5] of the same binder?
The koff was 0.00395 s⁻¹.

And the kon [5]?
The kon was 5.24e+06 M⁻¹ s⁻¹.

What about the Kd [6] of the same binder?
The Kd was 1.82 nM.

And the koff [6]?
The koff was 0.00302 s⁻¹.

And the kon [6]?
Its kon is 1.66e+06 M⁻¹ s⁻¹.

What about the Kd [7] of the same binder?
The Kd was 5 nM.

What about the koff [7] of the same binder?
The koff was 0.00621 s⁻¹.

What about the kon [7] of the same binder?
Its kon is 1.24e+06 M⁻¹ s⁻¹.

And the Kd [8]?
The Kd was 2.19 nM.

And the koff [8]?
Its koff is 0.00365 s⁻¹.

What about the kon [8] of the same binder?
The kon was 1.66e+06 M⁻¹ s⁻¹.

B2: lipocalin mutein SEQ ID NO: 5 (designed binder)
chain: QDSTSDLIPAPPLSKVPLQQNFQDNQFHGKWYVVGRAGNAELREDKDPEKMEATIYELKEDKSYNVTDVGFWQKKCIYVIHTFVPGSQPGEFTLGNIKSYPGTTSALVRVVSTNYNQHAMVFFKVVRQNREWFEITLYGRTKELTSELKENFIRFSKSLGLPENHIVFPVPIDQCIDGSAWSHPQFEK
How did the IC50 [1] turn out when B2 was run?
The IC50 was 28 nM.

And the IC50 [2]?
The IC50 was 36 nM.

And the IC50 [3]?
Its IC50 is 21 nM.

And the IC50 [4]?
Its IC50 is 27 nM.

B3: hNGAL wildtype (SEQ ID NO:1) (other)
chain: QDSTSDLIPAPPLSKVPLQQNFQDNQFHGKWYVVGLAGNAILREDKDPQKMYATIYELKEDKSYNVTSVLFRKKKCDYWIRTFVPGSQPGEFTLGNIKSYPGLTSYLVRVVSTNYNQHAMVFFKKVSQNREYFKITLYGRTKELTSELKENFIRFSKSLGLPENHIVFPVPIDQCIDG
notes: also called human lipocalin 2; human Lcn 2
What does the source list for B3?
koff [9]: 0.00233 s⁻¹; kon [9]: 1.62e+06 M⁻¹ s⁻¹; koff [10]: 0.000159 s⁻¹; kon [10]: 347000 M⁻¹ s⁻¹; koff [11]: 0.00414 s⁻¹; kon [11]: 1.1e+06 M⁻¹ s⁻¹; koff [12]: 0.00259 s⁻¹; kon [12]: 1640 M⁻¹ s⁻¹; koff [13]: 0.0185 s⁻¹; koff [14]: 0.00221 s⁻¹; kon [14]: 1200 M⁻¹ s⁻¹; koff [15]: 0.00234 s⁻¹; kon [15]: 342000 M⁻¹ s⁻¹; koff [16]: 0.00105 s⁻¹; kon [16]: 970000 M⁻¹ s⁻¹

B4: lipocalin mutein SEQ ID NO: 2 (designed binder)
chain: QDSTSDLIPAPPLSKVPLQQNFQDNQFHGKWYVVGEAGNWGLREDKDPKKMAATIYELKEDKSYNVTDVQFIEKKCDYWIGTFVPGSQPGEFTLGAIKSEPGQTSNLVRVVSTNYNQHAMVFFKEVWQNRELFWITLYGRTKELTSELKENFIRFSKSLGLPENHIVFPVPIDQCIDGSAWSHPQFEK
B4 was tested. Which IC50 [1] did it give?
The IC50 was 46 nM.

And the IC50 [2]?
Its IC50 is 55 nM.

And the IC50 [3]?
Its IC50 is 35 nM.

What about the IC50 [4] of the same binder?
The IC50 was 47 nM.

B5: lipocalin mutein SEQ ID NO: 6 (designed binder)
chain: QDSTSDLIPAPPLSKVPLQQNFQDNQFHGKWYVVGIAGNWWLREDKDPLKMYATIYELKEDKSYNVTHVMFMTKKCDYTIRTFVPGSQPGEFTLGNIKSIPGMTSLLVRVVSTNYNQHAMVFFKFVWQNREWFHITLYGRTKELTSELKENFIRFSKSLGLPENHIVFPVPIDQCIDGSAWSHPQFEK
B5 was tested. Which IC50 [2] did it give?
The IC50 was 3.1 nM.

And the IC50 [3]?
Its IC50 is 0.77 nM.

What about the IC50 [4] of the same binder?
Its IC50 is 1.6 nM.

B6: lipocalin mutein SEQ ID NO: 3 (designed binder)
chain: QDSTSDLIPAPPLSKVPLQQNFQDNQFHGKWYVVGFAGNMWLREDKDPFKMGATIYELKEDKSYNVTWVWFEAKKCDYGINTFVPGSQPGEFTLGGIKSPPGMTSHLVRVVSTNYNQHAMVFFKEVFQNREWFWITLYGRTKELTSELKENFIRFSKSLGLPENHIVFPVPIDQCIDGSAWSHPQFEK
B6 was tested. Which IC50 [1] did it give?
The IC50 was 14 nM.

And the IC50 [2]?
The IC50 was 7.5 nM.

And the IC50 [4]?
Its IC50 is 12 nM.
